According to IntAct's records for PubMed 22340593:

B1: Tumor protein p73 (Homo sapiens), O15350 (parent)
chain: MAQSTATSPDGGTTFEHLWSSLEPDSTYFDLPQSSRGNNEVVGGTDSSMDVFHLEGMTTSVMAQFNLLSSTMDQMSSRAASASPYTPEHAASVPTHSPYAQPSSTFDTMSPAPVIPSNTDYPGPHHFEVTFQQSSTAKSATWTYSPLLKKLYCQIAKTCPIQIKVSTPPPPGTAIRAMPVYKKAEHVTDVVKRCPNHELGRDFNEGQSAPASHLIRVEGNNLSQYVDDPVTGRQSVVVPYEPPQVGTEFTTILYNFMCNSSCVGGMNRRPILIIITLEMRDGQVLGRRSFEGRICACPGRDRKADEDHYREQQALNESSAKNGAASKRAFKQSPPAVPALGAGVKKRRHGDEDTYYLQVRGRENFEILMKLKESLELMELVPQPLVDSYRQQQQLLQRPSHLQPPSYGPVLSPMNKVHGGMNKLPSVNQLVGQPPPHSSAATPNLGPVGPGMLNNHGHAVPANGEMSSSHSAQSMVSGSHCTPPPPYHADPSLVSFLTGLGCPNCIEYFTSQGLQSIYHLQNLTIEDLGALKIPEQYRMTIWRGLQDLKQGHDYSTAQQLLRSSNAATISIGGSGELQRQRVMEAVHFRVRHTITIPNRGGPGGGPDEWADFGFDLPDCKARKQPIKEEFTEAEIH
B2: Tumor protein p73 (Homo sapiens), O15350 (parent)
chain: B1 chain
partner: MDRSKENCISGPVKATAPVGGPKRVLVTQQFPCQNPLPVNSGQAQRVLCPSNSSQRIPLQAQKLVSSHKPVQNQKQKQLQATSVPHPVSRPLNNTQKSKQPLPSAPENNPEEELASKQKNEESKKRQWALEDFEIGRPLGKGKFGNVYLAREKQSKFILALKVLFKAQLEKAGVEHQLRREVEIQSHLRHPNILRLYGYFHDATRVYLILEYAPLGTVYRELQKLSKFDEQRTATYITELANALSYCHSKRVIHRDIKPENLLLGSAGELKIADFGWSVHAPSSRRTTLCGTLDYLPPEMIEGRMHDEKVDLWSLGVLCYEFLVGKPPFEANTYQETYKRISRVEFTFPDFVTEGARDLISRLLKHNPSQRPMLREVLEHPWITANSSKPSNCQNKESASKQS

Variants of: B1
Conditions: with hspa9_human HSPA9, P38646
hspa9_human HSPA9, P38646, sequence (P38646 whole entry): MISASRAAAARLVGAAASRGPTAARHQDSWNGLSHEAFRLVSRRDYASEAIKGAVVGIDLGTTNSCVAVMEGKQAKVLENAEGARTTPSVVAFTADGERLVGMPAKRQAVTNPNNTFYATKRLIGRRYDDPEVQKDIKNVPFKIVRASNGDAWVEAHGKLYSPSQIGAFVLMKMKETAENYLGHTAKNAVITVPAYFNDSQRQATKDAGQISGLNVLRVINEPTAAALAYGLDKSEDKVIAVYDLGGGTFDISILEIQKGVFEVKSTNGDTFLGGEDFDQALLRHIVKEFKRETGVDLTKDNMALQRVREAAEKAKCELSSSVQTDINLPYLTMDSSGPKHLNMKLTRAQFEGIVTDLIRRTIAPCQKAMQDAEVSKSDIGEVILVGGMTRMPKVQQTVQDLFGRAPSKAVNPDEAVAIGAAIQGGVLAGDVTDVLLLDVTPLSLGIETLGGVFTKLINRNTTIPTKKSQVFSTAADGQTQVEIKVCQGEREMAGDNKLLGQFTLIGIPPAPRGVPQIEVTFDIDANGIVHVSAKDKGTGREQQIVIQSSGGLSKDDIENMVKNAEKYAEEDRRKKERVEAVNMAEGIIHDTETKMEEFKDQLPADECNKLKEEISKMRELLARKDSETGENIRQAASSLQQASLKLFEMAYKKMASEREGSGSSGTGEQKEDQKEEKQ

Variant | effect of a mutation on the interaction
S235D | increasing interaction strength

Variants of: B2
Conditions: with aurka_human AURKA

Variant | effect of a mutation on the interaction
S235D | increasing interaction strength
